2 proteins from publication PMC8024259, “The Pah-R261Q mouse reveals oxidative stress associated with amyloid-like hepatic aggregation of mutant phenylalanine hydroxylase” (Nature Communications, 2021) can be followed below.

This data set concerns the molecule itself. In words: SEC; preparative isolation of the tetramer after Factor Xa cleavage; Superdex HiLoad 16/600 200, 20 mM Hepes pH 7, 200 mM NaCl. (In general: In gel filtration, larger molecules generally elute earlier.)

B1: Recombinant human WT-PAH (phenylalanine hydroxylase) (enzyme, UniProt P00439 1-452, looked up)
chain: MSTAVLENPGLGRKLSDFGQETSYIEDNCNQNGAISLIFSLKEEVGALAKVLRLFEENDVNLTHIESRPSRLKKDEYEFFTHLDKRSLPALTNIIKILRHDIGATVHELSRDKKKDTVPWFPRTIQELDRFANQILSYGAELDADHPGFKDPVYRARRKQFADIAYNYRHGQPIPRVEYMEEEKKTWGTVFKTLKSLYKTHACYEYNHIFPLLEKYCGFHEDNIPQLEDVSQFLQTCTGFRLRPVAGLLSSRDFLGGLAFRVFHCTQYIRHGSKPMYTPEPDICHELLGHVPLFSDRSFAQFSQEIGLASLGAPDEYIEKLATIYWFTVEFGLCKQGDSIKAYGAGLLSSFGELQYCLSEKPKLLPLELEKTAIQNYTVTEFQPLYYVAESFNDAKEKVRNFAATIPRPFSVRYDPYTQRIEVLDNTQQLKILADSINSEIGILCSALQKIK
notes: phenylalanine hydroxylase, human, expressed from pMAL as MBP-(pep)xa-PAH and cleaved with Factor Xa; source: E. coli TB1, purified (amylose resin, Factor Xa cleavage, SEC); not shown: MBP, N-terminal, cleaved
A word on the stoichiometry N: it is a count of units in the complex or per binding partner. As for B1, the “stoichiometry N” value came to 4.

B2: Recombinant human p.R261Q-PAH (phenylalanine hydroxylase, p.Arg261Gln variant) (enzyme, UniProt P00439 1-452, looked up)
chain: MSTAVLENPGLGRKLSDFGQETSYIEDNCNQNGAISLIFSLKEEVGALAKVLRLFEENDVNLTHIESRPSRLKKDEYEFFTHLDKRSLPALTNIIKILRHDIGATVHELSRDKKKDTVPWFPRTIQELDRFANQILSYGAELDADHPGFKDPVYRARRKQFADIAYNYRHGQPIPRVEYMEEEKKTWGTVFKTLKSLYKTHACYEYNHIFPLLEKYCGFHEDNIPQLEDVSQFLQTCTGFRLRPVAGLLSSRDFLGGLAFQVFHCTQYIRHGSKPMYTPEPDICHELLGHVPLFSDRSFAQFSQEIGLASLGAPDEYIEKLATIYWFTVEFGLCKQGDSIKAYGAGLLSSFGELQYCLSEKPKLLPLELEKTAIQNYTVTEFQPLYYVAESFNDAKEKVRNFAATIPRPFSVRYDPYTQRIEVLDNTQQLKILADSINSEIGILCSALQKIK
notes: phenylalanine hydroxylase, human, PKU patient variant p.R261Q, expressed from pMAL as MBP-(pep)xa-PAH and cleaved with Factor Xa; Variant that occurs in PKU patients (c.782G>A); also called p.PAH-R261Q; source: E. coli TB1, purified (amylose resin, Factor Xa cleavage, SEC); not shown: MBP, N-terminal, cleaved
For the protein B2, the “stoichiometry N” value turned out to be 4.
